Substrate in series [1]: Nc1ccc(O)c(C(=O)O)c1
Kind of series: Drug uptake in human OATP2B1 expressed HEK293 cells assessed as net uptake. It counts as ADME, cell-based.

Substrate in series [2]: Nc1ccc(O)c(C(=O)O)c1
In words: Drug uptake in human OATP1B1 expressed HEK293 cells assessed as net uptake. Type of series: ADME, cell-based.

For two proteins, Km and Vmax results are on record in ChEMBL document CHEMBL3525949, “Role of organic anion-transporting polypeptides for cellular mesalazine (5-aminosalicylic acid) uptake” (Drug Metab Dispos, 2011).

In general, Km refers to the substrate concentration at which the rate is half of its maximum. The term Vmax denotes the top rate of the reaction or transport when substrate is in excess.

B1: Solute carrier organic anion transporter family member 2B1 (Homo sapiens) (protein)
chain: MGPRIGPAGEVPQVPDKETKATMGTENTPGGKASPDPQDVRPSVFHNIKLFVLCHSLLQLAQLMISGYLKSSISTVEKRFGLSSQTSGLLASFNEVGNTALIVFVSYFGSRVHRPRMIGYGAILVALAGLLMTLPHFISEPYRYDNTSPEDMPQDFKASLCLPTTSAPASAPSNGNCSSYTETQHLSVVGIMFVAQTLLGVGGVPIQPFGISYIDDFAHNSNSPLYLGILFAVTMMGPGLAFGLGSLMLRLYVDINQMPEGGISLTIKDPRWVGAWWLGFLIAAGAVALAAIPYFFFPKEMPKEKRELQFRRKVLAVTDSPARKGKDSPSKQSPGESTKKQDGLVQIAPNLTVIQFIKVFPRVLLQTLRHPIFLLVVLSQVCLSSMAAGMATFLPKFLERQFSITASYANLLIGCLSFPSVIVGIVVGGVLVKRLHLGPVGCGALCLLGMLLCLFFSLPLFFIGCSSHQIAGITHQTSAHPGLELSPSCMEACSCPLDGFNPVCDPSTRVEYITPCHAGCSSWVVQDALDNSQVFYTNCSCVVEGNPVLAGSCDSTCSHLVVPFLLLVSLGSALACLTHTPSFMLILRGVKKEDKTLAVGIQFMFLRILAWMPSPVIHGSAIDTTCVHWALSCGRRAVCRYYNNDLLRNRFIGLQFFFKTGSVICFALVLAVLRQQDKEARTKESRSSPAVEQQLLVSGPGKKPEDSRV
In the case of B1, in series [1], the Michaelis constant (Km) came to 189 µM and the Vmax worked out at 3.72e-05 µmol/min.

B2: Solute carrier organic anion transporter family member 1B1 (Homo sapiens) (protein)
chain: MDQNQHLNKTAEAQPSENKKTRYCNGLKMFLAALSLSFIAKTLGAIIMKSSIIHIERRFEISSSLVGFIDGSFEIGNLLVIVFVSYFGSKLHRPKLIGIGCFIMGIGGVLTALPHFFMGYYRYSKETNINSSENSTSTLSTCLINQILSLNRASPEIVGKGCLKESGSYMWIYVFMGNMLRGIGETPIVPLGLSYIDDFAKEGHSSLYLGILNAIAMIGPIIGFTLGSLFSKMYVDIGYVDLSTIRITPTDSRWVGAWWLNFLVSGLFSIISSIPFFFLPQTPNKPQKERKASLSLHVLETNDEKDQTANLTNQGKNITKNVTGFFQSFKSILTNPLYVMFVLLTLLQVSSYIGAFTYVFKYVEQQYGQPSSKANILLGVITIPIFASGMFLGGYIIKKFKLNTVGIAKFSCFTAVMSLSFYLLYFFILCENKSVAGLTMTYDGNNPVTSHRDVPLSYCNSDCNCDESQWEPVCGNNGITYISPCLAGCKSSSGNKKPIVFYNCSCLEVTGLQNRNYSAHLGECPRDDACTRKFYFFVAIQVLNLFFSALGGTSHVMLIVKIVQPELKSLALGFHSMVIRALGGILAPIYFGALIDTTCIKWSTNNCGTRGSCRTYNSTSFSRVYLGLSSMLRVSSLVLYIILIYAMKKKYQEKDINASENGSVMDEANLESLNKNKHFVPSAGADSETHC
In the case of B2, in series [2], the Michaelis-Menten constant (Km) was determined as 55.1 µM and the maximal velocity (Vmax) stood at 2.83e-05 µmol/min.
